Data on 125 sequences can be found in the supplement of paper PMC9112550, “Optimization of the antimicrobial peptide Bac7 by deep mutational scanning” (BMC Biology, 2022).

In the data set the test system is Escherichia coli TOP10. Nature of the data set: shrunken log2 fold change of peptide-encoding DNA abundance (4.5 h post-induction vs induction); higher = less antimicrobial activity (less host growth inhibition). The following applies: time post-induction: 4.5 h; library: site-saturation at positions 5, 18, 19, 20.
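Also: peptides expressed intracellularly from a pBAD plasmid library in pooled LB shake-flask culture, induced with 0.3% L-arabinose, DNA abundance read by NGS, three biological replicates, DESeq2 with apeglm shrinkage.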

Turning to RRIRRRPPRLPRPRPRPCGPPRP, the “shrunken log2 fold change” value turned out to be 0.517. Turning to RRIRHRPPRLPRPRPRPLQVPRP, the “shrunken log2 fold change” value was -0.28. For RRIRMRPPRLPRPRPRPVQSPRP, the “shrunken log2 fold change” value is 0.206. The figure for RRIRQRPPRLPRPRPRPTDVPRP is -0.194. Consider RRIRVRPPRLPRPRPRPIAQPRP, for which the “shrunken log2 fold change” value was -0.061. Regarding RRIRRRPPRLPRPRPRPKKKPRP, the “shrunken log2 fold change” value is -0.00706. Take RRIRERPPRLPRPRPRPPTDPRP: the “shrunken log2 fold change” value was -0.0968. The figure for RRIRQRPPRLPRPRPRPGDWPRP is 0.866.

With RRIRCRPPRLPRPRPRPAVNPRP, the “shrunken log2 fold change” value is -0.386.

Consider RRIRWRPPRLPRPRPRPTMRPRP, for which the “shrunken log2 fold change” value is 0.925. With RRIRYRPPRLPRPRPRPFVAPRP, the “shrunken log2 fold change” value was -0.696. The value for RRIRDRPPRLPRPRPRPLHTPRP was -0.0544; that for RRIRPRPPRLPRPRPRPHPCPRP was -0.105; that for RRIRPRPPRLPRPRPRPYQSPRP was -0.194.

For RRIRLRPPRLPRPRPRPKSKPRP, the “shrunken log2 fold change” value was -0.071. For the sequence RRIRQRPPRLPRPRPRPDLQPRP, the “shrunken log2 fold change” value was -0.0429. Regarding RRIRNRPPRLPRPRPRPAITPRP, the “shrunken log2 fold change” value came out at 0.134. On to RRIRDRPPRLPRPRPRPGYSPRP, for which the “shrunken log2 fold change” value is -0.591.

RRIRQRPPRLPRPRPRPVDTPRP: the “shrunken log2 fold change” value was -0.183. Take RRIRPRPPRLPRPRPRPYWIPRP: the “shrunken log2 fold change” value is -0.509. Turning to RRIRFRPPRLPRPRPRPNGTPRP, the “shrunken log2 fold change” value was -0.419. The figure for RRIRQRPPRLPRPRPRPYSVPRP is -0.00968; for RRIRARPPRLPRPRPRPSRCPRP it is 0.228; for RRIRVRPPRLPRPRPRPRTAPRP it is 0.287. Turning to RRIRDRPPRLPRPRPRPLDDPRP, the “shrunken log2 fold change” value is 0.459. As for RRIRCRPPRLPRPRPRPYPCPRP, the “shrunken log2 fold change” value stood at 0.00458. The value for RRIRIRPPRLPRPRPRPHFNPRP was -0.966; that for RRIRHRPPRLPRPRPRPFYIPRP was -1.15.

On to RRIRFRPPRLPRPRPRPPMDPRP, for which the “shrunken log2 fold change” value was -0.155. With RRIRQRPPRLPRPRPRPRRAPRP, the “shrunken log2 fold change” value is 0.79. As to RRIRTRPPRLPRPRPRPEDSPRP, the “shrunken log2 fold change” value was -0.0215.

Turning to RRIRDRPPRLPRPRPRPLKTPRP, the “shrunken log2 fold change” value is 0.333. On to RRIRLRPPRLPRPRPRPGGPPRP, for which the “shrunken log2 fold change” value came to 1.36. The value for RRIRVRPPRLPRPRPRPHHYPRP was 0.13; that for RRIRSRPPRLPRPRPRPYGNPRP was -0.621; that for RRIRYRPPRLPRPRPRPYICPRP was -0.234. The value for RRIRFRPPRLPRPRPRPFQLPRP was -0.0751; that for RRIRRRPPRLPRPRPRPCHTPRP was -0.24; that for RRIRWRPPRLPRPRPRPGHWPRP was 0.335. Regarding RRIRVRPPRLPRPRPRPVDTPRP, the “shrunken log2 fold change” value is -0.18.

Consider RRIRHRPPRLPRPRPRPIGQPRP, for which the “shrunken log2 fold change” value is -0.042.

RRIRHRPPRLPRPRPRPLYAPRP: the “shrunken log2 fold change” value was -0.402. As to RRIRQRPPRLPRPRPRPCLGPRP, the “shrunken log2 fold change” value came out at 0.172. As for RRIRDRPPRLPRPRPRPVFDPRP, the “shrunken log2 fold change” value turned out to be 0.291. Regarding RRIRQRPPRLPRPRPRPYRKPRP, the “shrunken log2 fold change” value was -0.0156. As for RRIRCRPPRLPRPRPRPTNQPRP, the “shrunken log2 fold change” value was -0.427. The figure for RRIRYRPPRLPRPRPRPETDPRP is -0.021. The figure for RRIRCRPPRLPRPRPRPYIKPRP is -0.791; for RRIRFRPPRLPRPRPRPLYTPRP it is -0.58.

Take RRIRPRPPRLPRPRPRPLHEPRP: the “shrunken log2 fold change” value came out at 0.236. The value for RRIRPRPPRLPRPRPRPDQLPRP was -0.0341; that for RRIRRRPPRLPRPRPRPIMEPRP was 0.161; that for RRIRMRPPRLPRPRPRPGWIPRP was -0.0121.

RRIRCRPPRLPRPRPRPNNAPRP: the “shrunken log2 fold change” value is -0.799. With RRIRYRPPRLPRPRPRPGPSPRP, the “shrunken log2 fold change” value was -0.125. On to RRIRPRPPRLPRPRPRPWMIPRP, for which the “shrunken log2 fold change” value is -0.334.

RRIRMRPPRLPRPRPRPQEEPRP: the “shrunken log2 fold change” value was -0.0207.

RRIRWRPPRLPRPRPRPGIYPRP: the “shrunken log2 fold change” value is -0.137. The value for RRIRARPPRLPRPRPRPNQTPRP was 0.064; that for RRIRSRPPRLPRPRPRPPLDPRP was 0.289; that for RRIRTRPPRLPRPRPRPSAMPRP was -0.0978.

With RRIRNRPPRLPRPRPRPTNKPRP, the “shrunken log2 fold change” value was -0.468. The figure for RRIRWRPPRLPRPRPRPVHDPRP is 0.141.

Regarding RRIRSRPPRLPRPRPRPWGPPRP, the “shrunken log2 fold change” value turned out to be 0.101. The value for RRIRCRPPRLPRPRPRPMISPRP was -0.235; that for RRIRYRPPRLPRPRPRPGDKPRP was -0.288.

In the case of RRIRIRPPRLPRPRPRPYIFPRP, the “shrunken log2 fold change” value was -0.425. For the sequence RRIRGRPPRLPRPRPRPNHEPRP, the “shrunken log2 fold change” value was determined as 0.0434. With RRIRKRPPRLPRPRPRPGYRPRP, the “shrunken log2 fold change” value stood at 0.129. The figure for RRIRMRPPRLPRPRPRPECVPRP is 2.97; for RRIRLRPPRLPRPRPRPNIYPRP it is -0.585; for RRIRGRPPRLPRPRPRPDFNPRP it is 0.325. With RRIRIRPPRLPRPRPRPPPDPRP, the “shrunken log2 fold change” value worked out at 0.654. The figure for RRIRERPPRLPRPRPRPDFPPRP is 0.00147; for RRIRARPPRLPRPRPRPQSEPRP it is 0.152; for RRIRHRPPRLPRPRPRPCWEPRP it is 0.153. The value for RRIRQRPPRLPRPRPRPCHPPRP was -0.032. Consider RRIRVRPPRLPRPRPRPCSCPRP, for which the “shrunken log2 fold change” value was 0.141. With RRIRYRPPRLPRPRPRPLSTPRP, the “shrunken log2 fold change” value was -0.29. The figure for RRIRARPPRLPRPRPRPQNMPRP is -0.497. On to RRIRYRPPRLPRPRPRPMMIPRP, for which the “shrunken log2 fold change” value is -0.00702. The value for RRIRERPPRLPRPRPRPIGEPRP was 0.128. The value for RRIRARPPRLPRPRPRPSCHPRP was -0.138. Consider RRIRCRPPRLPRPRPRPFERPRP, for which the “shrunken log2 fold change” value was -0.0613.

For RRIRQRPPRLPRPRPRPHITPRP, the “shrunken log2 fold change” value was -1.1.

Regarding RRIRRRPPRLPRPRPRPIHRPRP, the “shrunken log2 fold change” value was -0.041.

For the sequence RRIRRRPPRLPRPRPRPMVPPRP, the “shrunken log2 fold change” value was determined as 0.135. Turning to RRIRQRPPRLPRPRPRPAHPPRP, the “shrunken log2 fold change” value came to 0.181. The value for RRIRIRPPRLPRPRPRPDDWPRP was -0.0592; that for RRIRCRPPRLPRPRPRPRGCPRP was 0.395; that for RRIRQRPPRLPRPRPRPVNVPRP was 0.0398. The value for RRIRGRPPRLPRPRPRPKSKPRP was 0.611; that for RRIRLRPPRLPRPRPRPTIEPRP was 0.033; that for RRIRVRPPRLPRPRPRPACYPRP was -0.0764. For the sequence RRIRTRPPRLPRPRPRPSDKPRP, the “shrunken log2 fold change” value is -0.0752. RRIRDRPPRLPRPRPRPDKQPRP: the “shrunken log2 fold change” value was -0.129. For the sequence RRIRLRPPRLPRPRPRPAKIPRP, the “shrunken log2 fold change” value is -0.143. As to RRIRSRPPRLPRPRPRPRQYPRP, the “shrunken log2 fold change” value is -0.274. With RRIRWRPPRLPRPRPRPQNSPRP, the “shrunken log2 fold change” value turned out to be 0.0838. The value for RRIRARPPRLPRPRPRPAVVPRP was 0.16; that for RRIRDRPPRLPRPRPRPTVSPRP was 0.853. For the sequence RRIRCRPPRLPRPRPRPCHEPRP, the “shrunken log2 fold change” value was -0.0566.

On to RRIRLRPPRLPRPRPRPAFCPRP, for which the “shrunken log2 fold change” value was 0.289. The figure for RRIRSRPPRLPRPRPRPFLVPRP is -0.361.

In the case of RRIRARPPRLPRPRPRPGAAPRP, the “shrunken log2 fold change” value turned out to be 1.1.

For the sequence RRIRTRPPRLPRPRPRPDLMPRP, the “shrunken log2 fold change” value is -0.121. The value for RRIRWRPPRLPRPRPRPDVMPRP was 0.126; that for RRIRKRPPRLPRPRPRPPDIPRP was 0.609.

Regarding RRIRERPPRLPRPRPRPETTPRP, the “shrunken log2 fold change” value worked out at 0.165. In the case of RRIRCRPPRLPRPRPRPGWAPRP, the “shrunken log2 fold change” value was found to be 0.606. The value for RRIRWRPPRLPRPRPRPDCVPRP was 0.197. Regarding RRIRRRPPRLPRPRPRPNHGPRP, the “shrunken log2 fold change” value was -0.0793. Consider RRIRRRPPRLPRPRPRPLIRPRP, for which the “shrunken log2 fold change” value was -0.295. The value for RRIRTRPPRLPRPRPRPDLLPRP was -0.263. The figure for RRIRTRPPRLPRPRPRPNAIPRP is -0.797. The figure for RRIRFRPPRLPRPRPRPKVTPRP is -0.2; for RRIRKRPPRLPRPRPRPWWMPRP it is 0.105. RRIRSRPPRLPRPRPRPSTCPRP: the “shrunken log2 fold change” value was 0.0296. The value for RRIRSRPPRLPRPRPRPGYDPRP was -0.125. The value for RRIRGRPPRLPRPRPRPNVRPRP was 0.265; that for RRIRSRPPRLPRPRPRPNHVPRP was -0.803; that for RRIRLRPPRLPRPRPRPADLPRP was 0.0231. In the case of RRIRSRPPRLPRPRPRPGCPPRP, the “shrunken log2 fold change” value is 0.18.

For RRIRRRPPRLPRPRPRPKLWPRP, the “shrunken log2 fold change” value is 0.701. The value for RRIRYRPPRLPRPRPRPLLRPRP was -0.468.
